This note sets out measurements from PMC12483565, “CBFβ-SMMHC–driven leukemogenesis requires enhanced RUNX1-DNA binding affinity in mice”.

This series has as its target RUNX1c-R201Q (human, UniProt Q01196-8 1-480, R201Q). In words: EMSA; BLI: 20 mM Tris-HCl pH 8.0, 150 mM KCl, 1 mM EDTA, 1 mM DTT, 0.02% Tween-20, with 800 nM CBFβ or 400 nM CBFβ-SMMHC/mutant, preincubated 37 °C 30 min; EMSA: room temperature 30 min, 4-12% TBE gel, 1x TBE. The following applies: protein: ivt; label: IRDye700.

Chain of RUNX1c-R201Q (Q01196 other isoform, or with tags, fused parts or gaps R201Q | R201Q R201Q): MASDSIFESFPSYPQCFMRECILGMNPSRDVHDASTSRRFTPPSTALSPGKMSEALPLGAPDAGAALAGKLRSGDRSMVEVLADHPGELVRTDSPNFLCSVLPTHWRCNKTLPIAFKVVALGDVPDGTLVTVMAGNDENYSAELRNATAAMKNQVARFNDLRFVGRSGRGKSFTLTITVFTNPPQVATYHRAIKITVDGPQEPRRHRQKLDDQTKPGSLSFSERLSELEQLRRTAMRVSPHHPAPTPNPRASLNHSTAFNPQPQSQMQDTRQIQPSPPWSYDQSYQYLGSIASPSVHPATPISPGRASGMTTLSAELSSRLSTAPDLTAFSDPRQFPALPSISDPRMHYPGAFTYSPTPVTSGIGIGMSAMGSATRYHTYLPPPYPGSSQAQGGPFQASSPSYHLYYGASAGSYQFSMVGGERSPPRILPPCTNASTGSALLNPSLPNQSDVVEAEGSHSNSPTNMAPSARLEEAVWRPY

B1: CSF1R promoter probe (EMSA) (dsDNA)
DNA 1: CAAACTCTGTGGTTGCCTTG
DNA 2: CAAGGCAACCACAGAGTTTG
For B1, the binding result is listed as “no binding”.
